Assay results reported in the supplement of paper PMC9170038.

System: MS2 coat protein
Assay: apparent KD of MS2 coat protein; designed switch direction (-1 OFF switch, 1 ON switch): -1; higher = weaker reporter binding
Outline: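 Designed RNA switches with common flanks were made on Illumina chips by stalled E. coli RNA polymerase. Titration with SNAP-549-labelled MS2 coat protein doubled from 0.7 or 1.5 nM up to 3 µM. Apparent KD is each design's median over clusters after curve-fitting normalised fluorescence.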

[1] = input ligand: microRNA oligo, concentration not stated
[2] = Eterna round: R95, input ligand: microRNA oligo, concentration not stated
[3] = Eterna round: R95, input ligand: FMN 200 uM
[4] = Eterna round: R95, input ligand: none

GUAAACGUAUAGGAUAUUUCAGGUCAAAGCUGCAAAGAAGGAUACACAUGAGGAUCACCCAUGUGGUCAAUAAA [Mod of Quesina 23 - Jieux - Exclusion 6] (Eterna round: R97, puzzle: Exclusion 6)
apparent KD of MS2 coat protein (input ligand: FMN 200 uM): 42.2 nM | apparent KD of MS2 coat protein (input ligand: none): 20.4 nM

GGCGAAGUAGGAUAUACAUGAGGAUCACCCAUGUUACCUGAUGGCGUAGGUCUUCUAUGUAGAAGGGCUACGCC [jl-ex3-4.36 ViennaUCT mod] (Eterna round: R97, puzzle: Exclusion 3)
apparent KD of MS2 coat protein (input ligand: FMN 200 uM): 16.9 nM | apparent KD of MS2 coat protein (input ligand: none): 16.9 nM

AUCGUGCAGCUUUGCUGUACGAGUACAUGAGGAUCACCCAUGUAGGAUAUGGUACGCUUUGCGUGCUAGAAGGAUAUGUGUUUG [EX ENG3 1.44] (Eterna round: R96, puzzle: Exclusion NG 3)
apparent KD of MS2 coat protein (input ligand: FMN 200 uM): 58.6 nM | apparent KD of MS2 coat protein [1]: 29.8 nM | apparent KD of MS2 coat protein (input ligand: none): 43.4 nM

GACUUCUCUGAGGAUAUUGCAUCAUACGAUAAAUAAGAAGGCAGAACAUGAGGAUCACCCAUGUGGGUUUUUAG [Bingo-Bango-32] (Eterna round: R97, puzzle: Exclusion 6)
apparent KD of MS2 coat protein (input ligand: FMN 200 uM): 135 nM | apparent KD of MS2 coat protein (input ligand: none): 68.6 nM

UCGGUGACAGGAUAUACAUGAGGAUCACCCAUGUUAAGAAGAGAAAGGGCAGGAAGAGGUAGAAGGGUCGCUGU [JL JR_Exclu3_Sub033 mod] (puzzle: Exclusion 3)
apparent KD of MS2 coat protein [2]: 37.8 nM

CGCCUCAGCACAUGAGGAUCACCCAUGUACAAAAGUCCCAGGGAGGAUAUCUGCUGGUUGACUAGAGAGAAGGCCCAUACUAAC [Eternabot solution 45] (Eterna round: R96, puzzle: Exclusion NG 3)
apparent KD of MS2 coat protein (input ligand: FMN 200 uM): 42.6 nM | apparent KD of MS2 coat protein [1]: 36.6 nM | apparent KD of MS2 coat protein (input ligand: none): 45 nM

GAUUAACAUGAGGAUCACCCAUGUGAGGAUAUGGACUUGCCCACUUAACCAUUAGAGUCUAGAAGGCGCAUCUC [1986#28] (Eterna round: R97, puzzle: Exclusion 1)
apparent KD of MS2 coat protein (input ligand: FMN 200 uM): 27.1 nM | apparent KD of MS2 coat protein (input ligand: none): 22.7 nM

GUUAAACAUGAGGAUCACCCAUGUAAGGAUAUGCUGAGGUAGAGAUGAAGUGAAUGAAGCAGAAGGUACAAUUG [Mat - Mod of JL D55] (puzzle: Exclusion 1)
apparent KD of MS2 coat protein [3]: 62.6 nM | apparent KD of MS2 coat protein [2]: 81.8 nM | apparent KD of MS2 coat protein [4]: 78.8 nM

CUAGAUCUUCGGAUCUAGUACAUGAGGAUCACCCAUGUUACGAGCAGAUUUUCAUACAAGCUUUUUGCUCGUCUUAU [Sensor v3 - Turn-off variant 1 - 32] (puzzle: Sensor v3, turn-off variant 1)
apparent KD of MS2 coat protein [3]: 24.7 nM | apparent KD of MS2 coat protein [2]: 72.4 nM | apparent KD of MS2 coat protein [4]: 27.3 nM

UCGGCGCGAGGAUAUGCGGCUCCUGCUUCGGGCCGGAGCGUACAUGAGGAUCACCCAUGUAGAAGGCGCGCCGC [Apr-15 SS2-39] (puzzle: Exclusion 2)
apparent KD of MS2 coat protein [2]: 10.2 nM

GUGCAACAUGAGGAUCACCCAUGUCAGGAUAUGCGAAUUUCAUCAAAAGAUGAAAUUUGCAGAAGGGACUGUAC [Omei Ex1 A20] (Eterna round: R97, puzzle: Exclusion 1)
apparent KD of MS2 coat protein (input ligand: FMN 200 uM): 40.6 nM | apparent KD of MS2 coat protein (input ligand: none): 48.9 nM

CUGCUCCGUGUAGGAUAUGCGCGCAACCAACGCGCAGAAGGACAUGAGGAUCACCCAUGUAUGUUAUUAUCACGUGAGGCGCAA [Design 32] (Eterna round: R96, puzzle: Exclusion NG 1)
apparent KD of MS2 coat protein (input ligand: FMN 200 uM): 25.7 nM | apparent KD of MS2 coat protein [1]: 13.8 nM | apparent KD of MS2 coat protein (input ligand: none): 18.5 nM

GCUUGUGGGCAAGGAUAUCCUACGCUGUUCUGGUUCGUGUCUGUCACAUGAGGAUCACCCAUGUGGGAGAAGGUGCAUUUGGGU [Design 58] (Eterna round: R96, puzzle: Exclusion NG 2)
apparent KD of MS2 coat protein (input ligand: FMN 200 uM): 17.7 nM | apparent KD of MS2 coat protein [1]: 21.2 nM | apparent KD of MS2 coat protein (input ligand: none): 20.9 nM

UUUAAAUGAGGAUAUAGGAUCUUAGACAUGAGGAUCACCCAUGUGAAAUCAGACCUAGUCCUAGAAGGCGUAUGAC [Eternabot (L1) Solution 100] (Eterna round: R97, puzzle: Exclusion 5)
apparent KD of MS2 coat protein (input ligand: FMN 200 uM): 13.5 nM | apparent KD of MS2 coat protein (input ligand: none): 12.4 nM

ACAGUACUGCAAGGAUAUCGUUCUAGUUUAUUACGAGAAGGUGCUUUAGUUAUUUCUUUGGGUUGACAUGAGGAUCACCCAUGU [JR_ExcNG1_Sub056] (Eterna round: R96, puzzle: Exclusion NG 1)
apparent KD of MS2 coat protein (input ligand: FMN 200 uM): 156 nM | apparent KD of MS2 coat protein [1]: 143 nM | apparent KD of MS2 coat protein (input ligand: none): 144 nM

ACAUGAGGAUCACCCAUGUCCGGCUGGUCUGUUCCGGUUGUCGAGGAUAUAGUUCGGUGUUCGCGCUAGAAGGCGGGAGCUGGA [Aenatbe mod 53] (Eterna round: R96, puzzle: Exclusion NG 3)
apparent KD of MS2 coat protein (input ligand: FMN 200 uM): 177 nM | apparent KD of MS2 coat protein [1]: 130 nM | apparent KD of MS2 coat protein (input ligand: none): 157 nM

AAAAUACAUGAGGAUCACCCAUGUGAGGAUAUGAGAGUCAACUCGAGAGAGUUGAUUCUCAGAAGGCACAUAAA [JR_Ex1_Sub066] (Eterna round: R97, puzzle: Exclusion 1)
apparent KD of MS2 coat protein (input ligand: FMN 200 uM): 228 nM | apparent KD of MS2 coat protein (input ligand: none): 53.7 nM

ACCCAACAUGAGGAUCACCCAUGUCAGGAUAUCCAUCAAAAGCACGAAAGGCGAGGAUGGAGAAGGGACAGAGG [ChP 04-04-2015 #2] (puzzle: Exclusion 1)
apparent KD of MS2 coat protein [3]: 335 nM | apparent KD of MS2 coat protein [2]: 178 nM | apparent KD of MS2 coat protein [4]: 128 nM

GGCAUGCAAGGAUAUACUUACGGUGGUGUUCGAAGCUUUCUACUUGAGGAUCACCCAAGUAGAAGGUGCAUGCC [jl-ex2.4.74 ViennaUCT mod] (Eterna round: R97, puzzle: Exclusion 2)
apparent KD of MS2 coat protein (input ligand: FMN 200 uM): 18.7 nM | apparent KD of MS2 coat protein (input ligand: none): 23.7 nM

UUACCUAGUGUUAGGAUAUGCGACGGGUGACCGUUGCAGAAGGAACAUGAGGAUCACCCAUGUUUAAUAAAAUC [JL-BMX4-4.45 ViennaUCT mod] (Eterna round: R97, puzzle: Brourd's mod of Exclusion 4)
apparent KD of MS2 coat protein (input ligand: FMN 200 uM): 53.1 nM | apparent KD of MS2 coat protein (input ligand: none): 12.6 nM

CUGCUGGAGCGGCGCUUUGGUCGUACAUGAGGAUCACCCAUGUAGGAUAUGGUAAAAUUCGCCUGCUAGAAGGAUAGAGUGGUC [salish99_ExNG3_r04_617] (Eterna round: R96, puzzle: Exclusion NG 3)
apparent KD of MS2 coat protein (input ligand: FMN 200 uM): 135 nM | apparent KD of MS2 coat protein [1]: 62.5 nM | apparent KD of MS2 coat protein (input ligand: none): 88.1 nM

AAGAAACAUGAGGAUCACCCAUGUGAGGAUAUGUAAAAUAAAAGAAAAGAAAGAAGAAACAGAAGGCACAAAGG [Mat - Mod of Hog D13] (puzzle: Exclusion 1)
apparent KD of MS2 coat protein [3]: 47.3 nM | apparent KD of MS2 coat protein [2]: 35.4 nM | apparent KD of MS2 coat protein [4]: 47.5 nM

CAGCUGAAUGUGAGGAUAUGUCGAGCUGCGGCUCGAUAGAAGGCACAUGAGGAUCACCCAUGUCUCAACAGCUG [BmEx4/2-C3] (Eterna round: R97, puzzle: Brourd's mod of Exclusion 4)
apparent KD of MS2 coat protein (input ligand: FMN 200 uM): 215 nM | apparent KD of MS2 coat protein (input ligand: none): 31.2 nM

GUGUACAGAGGAUAUACACGAGUAGUUACGAAAGUAACUACACAUGAGGAUCACCCAUGUAGAAGGCUGUACAC [Dot plot directed] (puzzle: Exclusion 2)
apparent KD of MS2 coat protein [2]: 20.4 nM

GAUCAUGCAGGAUAUACAUGGAACAUUAAAUCAUGAAUUUCACAUGAGGAUCACCCAUGUAGAAGGGCAUGAUC [Omei Ex2 A16] (Eterna round: R97, puzzle: Exclusion 2)
apparent KD of MS2 coat protein (input ligand: FMN 200 uM): 32.5 nM | apparent KD of MS2 coat protein (input ligand: none): 31.6 nM

CCGCUGUGAGGAUAUUAGUAGUAGUCAGAAAAGACUAUUACUGAGAAGGCACAUGAGGAUCACCCAUGUGGCGG [Mat - Exclusion 4 - Eli Mod - D47] (Eterna round: R97, puzzle: Exclusion 4)
apparent KD of MS2 coat protein (input ligand: FMN 200 uM): 31.4 nM | apparent KD of MS2 coat protein (input ligand: none): 21.5 nM

UCUAGACAUGAGGAUCACCCAUGUGAGGAUAUGAUGCGAUCGUCGAAAGACGAUAGCAUCAGAAGGCACGUAUG [Fiskers Ex 1 - 14] (puzzle: Exclusion 1)
apparent KD of MS2 coat protein [2]: 54.4 nM

ACAAGCUCUUUGCAACUUAGUUUUGUUGCUUCGUAGGUAACAUGAGGAUCACCCAUGUAAGAGUGAUGUCGUCUUAU [JR_SV3TOV2_Sub085] (puzzle: Sensor v3, turn-off variant 2)
apparent KD of MS2 coat protein [3]: 65.8 nM | apparent KD of MS2 coat protein [2]: 52.7 nM | apparent KD of MS2 coat protein [4]: 76.9 nM

GGUGCGUUUGUGAGGAUAUGCUGGUCCUUGGAUCAGCAGAAGGCACAUGAGGAUCACCCAUGUGGUGUCCGUCC [salish99_Bmod_Ex4_039] (puzzle: Brourd's mod of Exclusion 4)
apparent KD of MS2 coat protein [2]: 180 nM

AGUAGAUCAGGAUAUACGUGAAAGGUCAAAGUGUCCAAUAUACAUGAGGAUCACCCAUGUAGAAGGGAUCUACA [Ex2 Design 116: Not so Super Stable 3] (Eterna round: R96, puzzle: Exclusion 2)
apparent KD of MS2 coat protein (input ligand: FMN 200 uM): 168 nM | apparent KD of MS2 coat protein [1]: 22.1 nM | apparent KD of MS2 coat protein (input ligand: none): 27.4 nM

UCCCGUGAAGGAUAUGGUUACAGGCACAUGAGGAUCACCCAUGUCACCUCGAAUACCUGAUCAGAAGGUUACUCGA [Eternabot (Original) Solution 40] (Eterna round: R97, puzzle: Exclusion 5)
apparent KD of MS2 coat protein (input ligand: FMN 200 uM): 20.1 nM | apparent KD of MS2 coat protein (input ligand: none): 19.9 nM
